# Data: US20060046277
# Experiments:
# [1] = system: GST-Z2-AMPK×3 [GST: P08515]
# [2] = system: AMPK kinase substrate (GST fusion, Table 2) [GST: P08515]
# [3] = system: GST-Z1-AMPK×3 [GST: P08515]
# GST-Abl×1 = system: T1, GST-Abl×1
# T1 sequence: AIYAAPF
# GST-Z2-Abl×1 = system: T2, GST-Z2-Abl×1
# T2 sequence: AIYAAPF
# [4] = system: EGFR kinase substrate (GST fusion, Table 2) [GST: P08515]
# [5] = system: Abl kinase substrate (GST fusion, Table 2) [GST: P08515]
# [6] = system: CHK kinase substrate (GST fusion, Table 2) [GST: P08515]
# [7] = system: CK1 kinase substrate (GST fusion, Table 2) [GST: P08515]
# [8] = system: Src kinase substrate (GST fusion, Table 2) [GST: P08515]
# [9] = system: IKK kinase substrate (GST fusion, Table 2) [GST: P08515]
# [10] = system: dsDNAPK kinase substrate (GST fusion, Table 2) [GST: P08515]
# [11] = system: CK2 kinase substrate (GST fusion, Table 2) [GST: P08515]
# [12] = system: ERK kinase substrate (GST fusion, Table 2) [GST: P08515]
# [13] = system: JNK3 kinase substrate (GST fusion, Table 2) [GST: P08515]
# [14] = system: PKA kinase substrate (GST fusion, Table 2) [GST: P08515]
# [15] = system: GST-Z2-Src×2 [GST: P08515]
# GST-dsDNA×1 = system: T3, GST-dsDNA×1
# T3 sequence: GGGEETQTQDQPMEEEEV
# [16] = system: GST-dsDNA×2 [GST: P08515]
# [17] = system: GST-dsDNA×4 [GST: P08515]
# [18] = system: GST-dsDNA×3 [GST: P08515]
# [19] = system: GST-Z1-dsDNA×4 [GST: P08515]
# JNK3, sequence (P53779 whole entry): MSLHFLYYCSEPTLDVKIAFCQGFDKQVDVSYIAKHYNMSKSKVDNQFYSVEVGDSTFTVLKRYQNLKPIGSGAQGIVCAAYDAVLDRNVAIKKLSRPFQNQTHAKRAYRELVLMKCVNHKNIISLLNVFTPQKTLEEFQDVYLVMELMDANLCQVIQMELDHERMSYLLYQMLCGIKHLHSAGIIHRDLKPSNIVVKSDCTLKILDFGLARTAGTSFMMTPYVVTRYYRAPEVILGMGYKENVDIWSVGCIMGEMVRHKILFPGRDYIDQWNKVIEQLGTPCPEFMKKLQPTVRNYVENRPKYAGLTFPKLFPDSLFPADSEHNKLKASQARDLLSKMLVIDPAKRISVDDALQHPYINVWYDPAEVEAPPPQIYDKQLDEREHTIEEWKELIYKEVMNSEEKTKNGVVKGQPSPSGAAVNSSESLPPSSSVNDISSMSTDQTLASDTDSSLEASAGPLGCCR
substance,measurement,setting,value
AMPK,"phosphorylation of the substrate on beads (32P-ATP, SDS-PAGE, autoradiogram; FIG. 6)",[1],All of the protein kinase substrates reacted with their corresponding kinases
same,"Reactivity for each of the Kinase Substrates (32P phosphorylation, autoradiogram)",[2],+++++
same,"phosphorylation of the substrate on beads (32P-ATP, SDS-PAGE, autoradiogram; FIG. 6)",[3],All of the protein kinase substrates reacted with their corresponding kinases
Abl,"phosphorylation of the substrate on beads (32P-ATP, SDS-PAGE, autoradiogram; FIG. 6)",GST-Abl×1,All of the protein kinase substrates reacted with their corresponding kinases
same,"phosphorylation of the substrate on beads (32P-ATP, SDS-PAGE, autoradiogram; FIG. 6)",GST-Z2-Abl×1,All of the protein kinase substrates reacted with their corresponding kinases
same,"Reactivity for each of the Kinase Substrates (32P phosphorylation, autoradiogram)",[2],+++
same,"Reactivity for each of the Kinase Substrates (32P phosphorylation, autoradiogram)",[4],+++++
same,"Reactivity for each of the Kinase Substrates (32P phosphorylation, autoradiogram)",[5],+++++
CHK,"Reactivity for each of the Kinase Substrates (32P phosphorylation, autoradiogram)",[6],+++++
same,"phosphorylation of the substrate on beads (32P-ATP, SDS-PAGE, autoradiogram; FIG. 6)",GST-CHK×5 [GST: P08515],All of the protein kinase substrates reacted with their corresponding kinases
CK1,"phosphorylation of the substrate on beads (32P-ATP, SDS-PAGE, autoradiogram; FIG. 6)",GST-CK1×4 [GST: P08515],All of the protein kinase substrates reacted with their corresponding kinases
same,"Reactivity for each of the Kinase Substrates (32P phosphorylation, autoradiogram)",[7],+++++
same,"Reactivity for each of the Kinase Substrates (32P phosphorylation, autoradiogram)",[8],+++++
same,"Reactivity for each of the Kinase Substrates (32P phosphorylation, autoradiogram)",[9],+
same,"Reactivity for each of the Kinase Substrates (32P phosphorylation, autoradiogram)",[10],+++++
CK2,"Reactivity for each of the Kinase Substrates (32P phosphorylation, autoradiogram)",[11],+++++
same,"Reactivity for each of the Kinase Substrates (32P phosphorylation, autoradiogram)",[9],+
same,"phosphorylation of the substrate on beads (32P-ATP, SDS-PAGE, autoradiogram; FIG. 6)",GST-CK2×4 [GST: P08515],All of the protein kinase substrates reacted with their corresponding kinases
EGFR,"phosphorylation in the 4-member substrate ladder on beads (32P-ATP, SDS-PAGE, autoradiogram; FIG. 12)",GST-EGFR×3 [GST: P08515],"All of the protein kinase substrates reacted with their corresponding kinases, and cross-reactivity with other substrate was minimal"
same,"phosphorylation of the substrate on beads (32P-ATP, SDS-PAGE, autoradiogram; FIG. 6)",GST-EGFR×3 [GST: P08515],All of the protein kinase substrates reacted with their corresponding kinases
same,"Reactivity for each of the Kinase Substrates (32P phosphorylation, autoradiogram)",[4],+++++
same,"Reactivity for each of the Kinase Substrates (32P phosphorylation, autoradiogram)",[5],+++++
IKK,"phosphorylation of the substrate on beads (32P-ATP, SDS-PAGE, autoradiogram; FIG. 6)",GST-IKK×4 [GST: P08515],All of the protein kinase substrates reacted with their corresponding kinases
same,"Reactivity for each of the Kinase Substrates (32P phosphorylation, autoradiogram)",[12],+
same,"Reactivity for each of the Kinase Substrates (32P phosphorylation, autoradiogram)",[13],+
same,"Reactivity for each of the Kinase Substrates (32P phosphorylation, autoradiogram)",[7],+++++
same,"phosphorylation in the 4-member substrate ladder on beads (32P-ATP, SDS-PAGE, autoradiogram; FIG. 12)",GST-IKK×7 [GST: P08515],"All of the protein kinase substrates reacted with their corresponding kinases, and cross-reactivity with other substrate was minimal"
same,"phosphorylation of the substrate on beads (32P-ATP, SDS-PAGE, autoradiogram; FIG. 6)",GST-IKK×7 [GST: P08515],All of the protein kinase substrates reacted with their corresponding kinases
same,"Reactivity for each of the Kinase Substrates (32P phosphorylation, autoradiogram)",[8],+
same,"Reactivity for each of the Kinase Substrates (32P phosphorylation, autoradiogram)",[9],+++++
JNK3,"phosphorylation in the 4-member substrate ladder on beads (32P-ATP, SDS-PAGE, autoradiogram; FIG. 12)",GST-JNK3×8 [GST: P08515],"All of the protein kinase substrates reacted with their corresponding kinases, and cross-reactivity with other substrate was minimal"
same,"phosphorylation of the substrate on beads (32P-ATP, SDS-PAGE, autoradiogram; FIG. 6)",GST-JNK3×8 [GST: P08515],All of the protein kinase substrates reacted with their corresponding kinases
same,"Reactivity for each of the Kinase Substrates (32P phosphorylation, autoradiogram)",[12],+
same,"Reactivity for each of the Kinase Substrates (32P phosphorylation, autoradiogram)",[13],+++++
same,"phosphorylation of the substrate on beads (32P-ATP, SDS-PAGE, autoradiogram; FIG. 6)",GST-JNK3×3 [GST: P08515],All of the protein kinase substrates reacted with their corresponding kinases
PKA,"Reactivity for each of the Kinase Substrates (32P phosphorylation, autoradiogram)",[14],+++++
same,"Reactivity for each of the Kinase Substrates (32P phosphorylation, autoradiogram)",[8],+++++
same,"Reactivity for each of the Kinase Substrates (32P phosphorylation, autoradiogram)",[10],+++++
same,"phosphorylation of the substrate on beads (32P-ATP, SDS-PAGE, autoradiogram; FIG. 6)",GST-Z1-PKA [GST: P08515],All of the protein kinase substrates reacted with their corresponding kinases
Src,"Reactivity for each of the Kinase Substrates (32P phosphorylation, autoradiogram)",[13],+
same,"Reactivity for each of the Kinase Substrates (32P phosphorylation, autoradiogram)",[7],+++++
same,"Reactivity for each of the Kinase Substrates (32P phosphorylation, autoradiogram)",[8],+++++
same,"Reactivity for each of the Kinase Substrates (32P phosphorylation, autoradiogram)",[2],+++
same,"phosphorylation in the 4-member substrate ladder on beads (32P-ATP, SDS-PAGE, autoradiogram; FIG. 12)",[15],"All of the protein kinase substrates reacted with their corresponding kinases, and cross-reactivity with other substrate was minimal"
same,"phosphorylation of the substrate on beads (32P-ATP, SDS-PAGE, autoradiogram; FIG. 6)",[15],All of the protein kinase substrates reacted with their corresponding kinases
same,"Reactivity for each of the Kinase Substrates (32P phosphorylation, autoradiogram)",[5],+++++
dsDNA (DNAPK),"phosphorylation by dsDNA PK (32P ATP, SDS-PAGE, autoradiogram; FIG. 7)",GST-dsDNA×1,autoradiogram of phosphorylated GST-dsDNA kinase peptide substrate fusion proteins with different number of the peptide repeats
same,"Reactivity for each of the Kinase Substrates (32P phosphorylation, autoradiogram)",[14],+++++
same,"phosphorylation by dsDNA PK (32P ATP, SDS-PAGE, autoradiogram; FIG. 7)",[16],autoradiogram of phosphorylated GST-dsDNA kinase peptide substrate fusion proteins with different number of the peptide repeats
same,"phosphorylation by dsDNA PK (32P ATP, SDS-PAGE, autoradiogram; FIG. 7)",[17],autoradiogram of phosphorylated GST-dsDNA kinase peptide substrate fusion proteins with different number of the peptide repeats
same,"phosphorylation by dsDNA PK (32P ATP, SDS-PAGE, autoradiogram; FIG. 7)",[18],autoradiogram of phosphorylated GST-dsDNA kinase peptide substrate fusion proteins with different number of the peptide repeats
same,"phosphorylation of the substrate on beads (32P-ATP, SDS-PAGE, autoradiogram; FIG. 6)",[19],All of the protein kinase substrates reacted with their corresponding kinases
same,"Reactivity for each of the Kinase Substrates (32P phosphorylation, autoradiogram)",[10],+++++
